Assay results reported in patent publication US6071515.

Target: Bovine submaxillary mucin (BSM) (bovine)
Experiment: binding of the 125I-labelled protein to BSM

| Substance | Percent Activity (as determined by BSM binding) |
| --- | --- |
| CC49, murine monoclonal antibody specific to TAG-72 (ATCC No. HB9459) | 96 percent |
| ChCC49 Fab | 64 percent |
